In general, Kd refers to the constant that tells how readily two partners part at equilibrium. A low value points to a tighter complex.

For 2 molecules, Kd results are on record in publication PMC5566100.

The series addresses IGFIIR extracellular domain (domains 10-14; M6PR) (human, UniProt P11717 1510-2108). Briefly: SPR. Background: In SPR one partner is held on a chip, and binding of the other changes the refractive index at the surface.

IGFIIR extracellular domain (domains 10-14; M6PR), sequence (P11717 1510-2108): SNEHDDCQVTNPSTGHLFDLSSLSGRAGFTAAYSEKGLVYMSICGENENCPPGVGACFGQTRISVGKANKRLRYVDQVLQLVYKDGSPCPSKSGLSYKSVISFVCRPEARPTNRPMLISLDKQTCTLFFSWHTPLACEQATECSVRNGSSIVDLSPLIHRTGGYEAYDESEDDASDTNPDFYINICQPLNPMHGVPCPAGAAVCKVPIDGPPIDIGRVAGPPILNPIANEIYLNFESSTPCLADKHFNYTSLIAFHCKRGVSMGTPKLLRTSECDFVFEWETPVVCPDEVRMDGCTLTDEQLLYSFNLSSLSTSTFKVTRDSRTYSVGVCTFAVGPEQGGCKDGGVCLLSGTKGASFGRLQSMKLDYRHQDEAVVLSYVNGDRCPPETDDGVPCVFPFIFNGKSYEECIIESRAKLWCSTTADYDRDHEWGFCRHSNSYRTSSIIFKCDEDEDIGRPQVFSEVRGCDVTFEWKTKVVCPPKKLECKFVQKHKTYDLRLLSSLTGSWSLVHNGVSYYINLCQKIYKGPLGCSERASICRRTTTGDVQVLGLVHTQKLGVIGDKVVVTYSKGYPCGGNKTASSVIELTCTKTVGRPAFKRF

In turn, GGGCGCGUAGAUGACGAGCAGUCCUAACAUCGUUUAGGAC (structured_RNA) [RNA aptamer-20] registered a Kd of 20 nM.

GGGCGCGTAGATGACGAGCAGTCCTAACATCGTTTAGGAC (structured_DNA) [DNA aptamer-20] returned a Kd of 35.5 nM.
